Read-outs that look alike come from different tables or passages of the source. Each block holds one binder with its values, some of them ahead of it.
Tests used:
[1] = target: T1, Human 4-1BB His (human, UniProt Q07011 24-186); assay: ELISA: Human 4-1BB His coated (0.2 ug/mL), antibody titrated, goat anti-human IgG Fc detection (Example 3)
T1 construct: Bought protein; lots 198-2146F1-W6 and 2407c-214FF1-YC; also called human 4-1BB protein; 4-1BB protein; not shown: His tag
Method: (§1) Human 4-1BB His (manufacturer: Acro, CAT: 41B-H5258, LOT: 198-2146F1-W6) was diluted to 0.2 μg/mL with a coating solution (1×PBS, pH7.4), and coated in 96-well ELISA plate at 100 μL/well overnight at 4° C. The coating solution was poured off. Each well was washed with 1×PBST at 300 μL, washed 4 times with a plate washer, and patted dry on a flat paper. It was blocked with 3% skim milk powder at 300 μL/well, and incubated at 37° C. for 1 h. The blocking solution was poured off, washed 4 times with a plate washer, and patted dry on a flat paper. Negative control and positive control were set up. […] The variable region of the antibody sequence of the positive control consists of SEQ ID NO: 15 and SEQ ID NO: 19, with the addition of the constant region of human IgG1 (SEQ ID NO: 46 and SEQ ID NO: 47). The positive control and antibody were diluted to 10 μg/mL with 3% skim milk powder as the starting concentration, and then diluted by 3-fold gradient (11 gradients in total), and a blank well was set up and only the diluent was added. It was incubated at 37° C. for 1 h at 100 μL/well. The liquid in the well was discarded, washed 4 times with a plate washer, and patted dry on a flat paper. Goat anti-human IgG Fc was diluted with 3% skim milk powder at 1:20000, and incubated at 37° C. for 1 h at 100 μL/well. It was washed 6 times with a plate washer, and patted dry on a flat paper. TMB color developing solution was added at 100 μL/well, and wrapped with aluminum foil. Color development was performed at 37° C. in the dark for 8 min. Termination solution 1M HCl was added to terminate the color development reaction at 100 μL/well. Readings were taken at 450 nm on an ELISA reader.

[2] = target: T1, Human 4-1BB His; assay: as above; remark: listed apart in the source
Method: as §1

[3] = target: T1, Human 4-1BB His; assay: as above; remark: listed apart in the source
Method: as §1, with “It was washed 6 times with a plate washer, and patted dry on a flat paper. TMB color developing solution was added at 100 μL/well, and wrapped with aluminum foil. Color development was performed at 37° C. in the dark for 8 min. Termination solution 1M HCl was added to terminate the color development reaction at 100 μL/well.” left out

[4] = target: T1, Human 4-1BB His; assay: as above; remark: listed apart in the source
Method: as §1

[5] = target: T1, Human 4-1BB His; assay: as above; remark: listed apart in the source
Method: as §1

[6] = target: T1, Human 4-1BB His; assay: BLI, antibody on AHC sensor, 100 nM 4-1BB His in solution
Excerpt: (§2) The variable region of the antibody sequence of the positive control consists of SEQ ID NO: 15 and SEQ ID NO: 19, with the addition of the constant region of human IgG1 (SEQ ID NO: 46 and SEQ ID NO: 47). The AHC sensor was soaked in 0.02% PBST (0.02% Tween 20, pH 7.4, 1× PBS) as a buffer for 600 s to remove the sucrose covering the sensor surface. The AHC sensor was equilibrated with 0.02% PBST (0.02% Tween 20, pH 7.4, 1× PBS) as a buffer for 60 s, the antibody in the sample plate was solidified for 300 s, and the secondary equilibration buffer was used for 180 s. 100 nM human 4-1BB His (manufacturer: Acro, CAT: 41B-H5258, LOT: 198-2146F1-W6) protein was bound to the antibody for 300 s and then dissociated for 600 s. After dissociation, 10 mM glycine (pH 2.0) was used as a regeneration buffer for 30 s. The sensor was regenerated with 10 mM glycine (pH 2.0).

[7] = target: T1, Human 4-1BB His; assay: ELISA: Human 4-1BB His coated (0.2 ug/mL), antibody titrated, goat anti-human IgG Fc detection (Example 3); remark: listed apart in the source
Method: as §1

[8] = target: T2, Human-TNFR2-His (human, UniProt P20333 23-257); assay: BLI, antibody on AHC sensor, 100 nM TNFR2-His in solution
T2 construct: Bought protein; also called human TNFR2 protein; TNFR2 protein; not shown: His tag
T2 sequence (looked up): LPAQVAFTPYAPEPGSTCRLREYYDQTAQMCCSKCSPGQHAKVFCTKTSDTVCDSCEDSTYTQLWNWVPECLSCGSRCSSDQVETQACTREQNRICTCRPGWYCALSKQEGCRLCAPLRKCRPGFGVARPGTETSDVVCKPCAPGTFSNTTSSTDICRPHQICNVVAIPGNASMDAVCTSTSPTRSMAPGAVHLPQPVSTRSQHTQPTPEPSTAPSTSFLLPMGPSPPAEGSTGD
Method: as §2, with “The” for “The variable region of the antibody sequence of the positive control consists of SEQ ID NO: 15 and SEQ ID NO: 19, with the addition of the constant region of human IgG1 (SEQ ID NO: 46 and SEQ ID NO: 47). The”, “1×PBS)” for “1× PBS)”, “human-TNFR2-His” for “human 4-1BB His”, “SINO,” for “Acro,”, “10417-H08H,” for “41B-H5258,”, “LC15NO0412)” for “198-2146F1-W6)”

[9] = target: T2, Human-TNFR2-His; assay: ELISA: Human-TNFR2-His coated (0.1 ug/mL), antibody titrated, goat anti-human IgG Fc detection (Example 2)
Method: (§3) Human-TNFR2-His (manufacturer: SINO, CAT: 10417-H08H, LOT: LC15NO0412) was diluted to 0.1 μg/mL with a coating solution (1×PBS, pH7.4), and coated in 96-well ELISA plate at 100 µL/well overnight at 4° C. The coating solution was poured off. Each well was washed with 1×PBST at 300 μL, washed 4 times with a plate washer, and patted dry on a flat paper. It was blocked with 3% skim milk powder at 300 μL/well, and incubated at 37° C. for 1 h. The blocking solution was poured off, washed 4 times with a plate washer, and patted dry on a flat paper. Negative control and positive control were set up. […] The positive control and antibody were diluted to 10 μg/mL with 3% skim milk powder as the starting concentration, and then diluted by 3-fold gradient (11 gradients in total), and a blank well was set up and only the diluent was added. It was incubated at 37° C. for 1 h at 100 μL/well. The liquid in the well was discarded, washed 4 times with a plate washer, and patted dry on a flat paper. Goat anti-human IgG Fc was diluted with 3% skim milk powder at 1:10000, and incubated at 37° C. for 1 h at 100 μL/well. It was washed 6 times with a plate washer, and patted dry on a flat paper. TMB color developing solution was added at 100 μL/well, and wrapped with aluminum foil. Color development was performed at 37° C. in the dark for 8 min. Termination solution 1M HCl was added to terminate the color development reaction at 100 μL/well. Readings were taken at 450 nm on an ELISA reader.

[10] = target: T2, Human-TNFR2-His; assay: as above; remark: listed apart in the source
[11] = target: T2, Human-TNFR2-His; assay: as above; remark: listed apart in the source
Method: as §3, with “Termination solution 1M HCl was added to terminate the color development reaction at 100 μL/well.” left out

[12] = target: T2, Human-TNFR2-His; assay: as above; remark: listed apart in the source
Method: as §3

T1 sequence (Q07011 24-186 limits assumed): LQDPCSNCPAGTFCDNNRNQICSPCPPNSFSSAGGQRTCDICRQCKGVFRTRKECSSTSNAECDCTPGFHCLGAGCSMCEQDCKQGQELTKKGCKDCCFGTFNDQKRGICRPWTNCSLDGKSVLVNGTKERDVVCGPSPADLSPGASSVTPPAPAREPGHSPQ

EC50 (read off the curve) [1]: ~50 pM
EC50 (read off the curve) [2]: ~50 pM
EC50 (read off the curve) [3]: ~70 pM
EC50 (read off the curve) [4]: ~50 pM
EC50 (read off the curve) [5]: ~50 pM
Kd [6]: 14200 pM
koff [6]: 0.00553 s⁻¹
kon [6]: 391000 M⁻¹ s⁻¹
EC50 (read off the curve) [7]: ~100 pM
B1: Positive control (anti-4-1BB antibody, human IgG1) (antibody, V domains shown)
VH: QVQLQESGPGLVKPSETLSLTCTVSGSSLTSYGVHWVRQPPGKGLEGLGVIWPGGSTNYNSALMSRVTISKDNSKSQVSLKMSSLTAADTAVYYCARVTGTWYFDVWGQGTTVTVSS
VL: DIQMTQSPSSLSASLGDRVTISCSASQGISNYLNWYQQKPDGTVKLLIYYTSTLHSGVPSRFSGSGSGTDYTLTISSLQPEDIATYYCQQYSKLPWTFGGGTKLEIK
notes: also called control antibody

Kd [8]: 1610 pM
koff [8]: 0.000427 s⁻¹
kon [8]: 266000 M⁻¹ s⁻¹
EC50 (read off the curve) [9]: ~40 pM
EC50 (read off the curve) [10]: ~40 pM
EC50 (read off the curve) [11]: 100 to 200 pM
EC50 (read off the curve) [12]: 40 to 50 pM
B2: Positive control 2 (anti-TNFR2 VHH) (VHH)
VHH: EVQLVESGGGLVQPGGSLRLSCAASGSRLDYYAVAWFRQAPGKEREEVSCITYSGGSTNYAESVKGRFTISRDNSKNTLYLQMNSLRAEDTAVYYCTTEPYGSSCPLSGYDTWGQGTLVTVSS

From US20260049151A1 (SHENGHE CHINA BIOPHARMACEUTICAL, published 2026)
